Laboratory results as given in the supplement of paper PMC10567573.

B1: NEUROD6 (parent)
chain: YHSPELTTPPGHGTLDNSKSMKPY

Variants of: B1
Test: protein stability index of a GFP-peptide fusion (GPS, HEK-293T) (PSI 1-6); higher = more stable
Conditions: c terminus: a fixed tail appended
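Further: lentivirally expressed fusions sorted by FACS into six bins by GFP to DsRed ratio, PSI derived from sequencing read proportions per bin multiplied by bin number.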

Variant	protein stability index
YHSPELTTPPGWGTLDNSKSMKPY [H12W]	1.43
YHSPELTTPPGTGTLDNSKSMKPY [H12T]	2.53
YHSPELTTPPGCGTLDNSKSMKPY [H12C]	2.25
YHSPELTTPPGKGTLDNSKSMKPY [H12K]	2.18
YHSPELTTPPGPGTLDNSKSMKPY [H12P]	2.25
YHSPELTTPPGEGTLDNSKSMKPY [H12E]	2.24
YHSPELTTPPGIGTLDNSKSMKPY [H12I]	2.01
YHSPELTTPPGYGTLDNSKSMKPY [H12Y]	1.71
YHSPELTTPPGFGTLDNSKSMKPY [H12F]	1.97
YHSPELTTPPGQGTLDNSKSMKPY [H12Q]	2.21
YHSPELTTPPGNGTLDNSKSMKPY [H12N]	2.49
YHSPELTTPPGRGTLDNSKSMKPY [H12R]	2.25
YHSPELTTPPGAGTLDNSKSMKPY [H12A]	2.16
YHSPELTTPPGDGTLDNSKSMKPY [H12D]	2.56
YHSPELTTPPGMGTLDNSKSMKPY [H12M]	2.56
YHSPELTTPPGGGTLDNSKSMKPY [H12G]	2.48
YHSPELTTPPGLGTLDNSKSMKPY [H12L]	2.29
YHSPELTTPPGVGTLDNSKSMKPY [H12V]	2.16
YHSPELTTPPGSGTLDNSKSMKPY [H12S]	1.96
YHSPELTTPPDHGTLDNSKSMKPY [G11D]	2.69
YHSPELTTPPFHGTLDNSKSMKPY [G11F]	1.73
YHSPELTTPPEHGTLDNSKSMKPY [G11E]	2.67
YHSPELTTPPKHGTLDNSKSMKPY [G11K]	2.5
YHSPELTTPPHHGTLDNSKSMKPY [G11H]	1.99

Variant	protein stability index
YHSPELTTPPSHGTLDNSKSMKPY [G11S]	2.17
YHSPELTTPPAHGTLDNSKSMKPY [G11A]	2.34
YHSPELTTPPWHGTLDNSKSMKPY [G11W]	1.98
YHSPELTTPPLHGTLDNSKSMKPY [G11L]	2.31
YHSPELTTPPNHGTLDNSKSMKPY [G11N]	2.39
YHSPELTTPPIHGTLDNSKSMKPY [G11I]	2.21
YHSPELTTPPCHGTLDNSKSMKPY [G11C]	2.06
YHSPELTTPPRHGTLDNSKSMKPY [G11R]	2.29
YHSPELTTPPYHGTLDNSKSMKPY [G11Y]	2.07
YHSPELTTPPTHGTLDNSKSMKPY [G11T]	2.08
YHSPELTTPPVHGTLDNSKSMKPY [G11V]	1.96
YHSPELTTPPMHGTLDNSKSMKPY [G11M]	2.48
YHSPELTTPPQHGTLDNSKSMKPY [G11Q]	2.28
YHSPELTTPCGHGTLDNSKSMKPY [P10C]	1.9
YHSPELTTPDGHGTLDNSKSMKPY [P10D]	2.74
YHSPELTTPEGHGTLDNSKSMKPY [P10E]	2.42
YHSPELTTPTGHGTLDNSKSMKPY [P10T]	1.7
YHSPELTTPIGHGTLDNSKSMKPY [P10I]	1.67
YHSPELTTPNGHGTLDNSKSMKPY [P10N]	1.97
YHSPELTTPFGHGTLDNSKSMKPY [P10F]	2.03
YHSPELTTPSGHGTLDNSKSMKPY [P10S]	1.75
YHSPELTTPMGHGTLDNSKSMKPY [P10M]	1.88
YHSPELTTPRGHGTLDNSKSMKPY [P10R]	2.3
YHSPELTTPHGHGTLDNSKSMKPY [P10H]	2.17

Variant	protein stability index
YHSPELTTPKGHGTLDNSKSMKPY [P10K]	2.13
YHSPELTTPQGHGTLDNSKSMKPY [P10Q]	2.02
YHSPELTTPWGHGTLDNSKSMKPY [P10W]	3.84
YHSPELTTPLGHGTLDNSKSMKPY [P10L]	2.13
YHSPELTTPVGHGTLDNSKSMKPY [P10V]	2.33
YHSPELTTPYGHGTLDNSKSMKPY [P10Y]	1.96
YHSPELTTPGGHGTLDNSKSMKPY [P10G]	1.78
YHSPELTTPPGHGTLDNAKSMKPY [S18A]	2.09
YHSPELTTPPGHGTLDNRKSMKPY [S18R]	2
YHSPELTTPPGHGTLDNDKSMKPY [S18D]	2.06
YHSPELTTPPGHGTLDNMKSMKPY [S18M]	1.76
YHSPELTTPPGHGTLDNQKSMKPY [S18Q]	2.22
YHSPELTTPPGHGTLDNKKSMKPY [S18K]	2.43
YHSPELTTPPGHGTLDNFKSMKPY [S18F]	1.81
YHSPELTTPPGHGTLDNYKSMKPY [S18Y]	1.94
YHSPELTTPPGHGTLDNNKSMKPY [S18N]	2.54
YHSPELTTPPGHGTLDNPKSMKPY [S18P]	2.17
YHSPELTTPPGHGTLDNLKSMKPY [S18L]	1.74
YHSPELTTPPGHGTLDNVKSMKPY [S18V]	2.38
YHSPELTTPPGHGTLDNCKSMKPY [S18C]	1.81
YHSPELTTPPGHGTLDNEKSMKPY [S18E]	2.16
YHSPELTTPPGHGTLDNGKSMKPY [S18G]	2.39
YHSPELTTPPGHGTLDNHKSMKPY [S18H]	2.04
YHSPELTTPPGHGTLDNTKSMKPY [S18T]	2

Variant	protein stability index
YHSPELTTPPGHGTLDNWKSMKPY [S18W]	1.8
YHSPELTTPPGHGTLDNIKSMKPY [S18I]	1.95
YHSPELTTPPGHWTLDNSKSMKPY [G13W]	1.76
YHSPELTTPPGHRTLDNSKSMKPY [G13R]	1.76
YHSPELTTPPGHHTLDNSKSMKPY [G13H]	2.48
YHSPELTTPPGHITLDNSKSMKPY [G13I]	2.06
YHSPELTTPPGHVTLDNSKSMKPY [G13V]	2.05
YHSPELTTPPGHLTLDNSKSMKPY [G13L]	2.14
YHSPELTTPPGHMTLDNSKSMKPY [G13M]	2.13
YHSPELTTPPGHNTLDNSKSMKPY [G13N]	2.47
YHSPELTTPPGHATLDNSKSMKPY [G13A]	2.28
YHSPELTTPPGHQTLDNSKSMKPY [G13Q]	2.11
YHSPELTTPPGHDTLDNSKSMKPY [G13D]	2.46
YHSPELTTPPGHKTLDNSKSMKPY [G13K]	2.35
YHSPELTTPPGHFTLDNSKSMKPY [G13F]	2.18
YHSPELTTPPGHSTLDNSKSMKPY [G13S]	2.19
YHSPELTTPPGHTTLDNSKSMKPY [G13T]	2.41
YHSPELTTPPGHYTLDNSKSMKPY [G13Y]	2.07
YHSPELTTPPGHCTLDNSKSMKPY [G13C]	1.99
YHSPELTTPPGHETLDNSKSMKPY [G13E]	2.67
YHSPELTTPPGHGTLDKSKSMKPY [N17K]	2.14
YHSPELTTPPGHGTLDPSKSMKPY [N17P]	2.15
